Data reported in patent US20210301021A1 (NANJING GENSCRIPT BIOTECH, published 2021).
Positions count from the first letter of the chain named.

Experiments:
CTLA4/His [1] = target: T1, CTLA4/His (human, UniProt P16410 36-161); assay: SPR (Biacore), untreated control of the oxidation pressure test, analyte CTLA4/His
T1 construct: not shown: His tag
T1 sequence (looked up): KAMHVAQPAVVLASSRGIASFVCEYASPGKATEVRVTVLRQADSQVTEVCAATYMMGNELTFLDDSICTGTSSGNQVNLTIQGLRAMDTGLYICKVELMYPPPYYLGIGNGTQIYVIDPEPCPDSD

[2] = target: T2, CTLA-4 on the functional cells of the Promega anti-CTLA-4 blocking assay kit (UniProt P16410 36-223, limits assumed); assay: cell-based or functional assay
T2 sequence (looked up): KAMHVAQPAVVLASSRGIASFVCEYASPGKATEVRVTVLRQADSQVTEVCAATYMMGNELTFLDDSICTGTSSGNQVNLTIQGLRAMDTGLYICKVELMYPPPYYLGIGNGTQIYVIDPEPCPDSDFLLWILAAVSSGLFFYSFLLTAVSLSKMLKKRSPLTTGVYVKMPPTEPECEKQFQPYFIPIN

CTLA4/His [3] = target: T1, CTLA4/His; assay: SPR, Biacore 8K, antibody captured on the chip, antigen as analyte, 1:1 binding model
CTLA4/His [4] = target: T1, CTLA4/His; assay: SPR, Biacore 8K, antibody captured on the chip, antigen as analyte, 1:1 binding model; chimeric antibody, analyte CTLA4/His (Table 4)
CTLA4/His [5] = target: T1, CTLA4/His; assay: SPR, Biacore 8K, antibody captured on the chip, antigen as analyte, 1:1 binding model; Table 4, analyte CTLA4/His; Rmax 38.2, Chi^2 5.48E-02
CTLA4/His [6] = target: T1, CTLA4/His; assay: SPR (Biacore), after AAPH oxidation, analyte CTLA4/His
[7] = target: T3, human CTLA4-Fc recombinant protein (human, UniProt P16410 36-161); assay: kinetics of the prokaryotic expression product, analyte CTLA4/Fc, 1:1 binding model
T3 construct: not shown: Fc part
T3 sequence (looked up): T1 sequence (looked up)

[8] = target: T3, human CTLA4-Fc recombinant protein; assay: kinetics of the prokaryotic expression product, analyte CTLA4/Fc, 1:1 binding model; prokaryotic expression product, analyte CTLA4/Fc (Table 2)

B1: Chimeric antibody (antibody, V domains shown)
VH: QVHLQQSGDVLVKPGASVNLSCKASGYTFTSYWINWIKQRPGQGLEWIGRIAPGSGTTYYNEMFTGKATLTVVTSSTTAYIQLSSLSFEDSAVYFCARGDYFDYWDQGTTLTVSS
VL: QIVLTQSPAIMSASPGGKVTITCSASKSVSYIHWFQQKPGTSPKLLIYDTSTLASGVPPRFSGSGSGPSYSLTISRMEAEDAATYYCQQRTTYPLTFGGGTKLEVR
notes: also called Chimeric IgG
Kd (CTLA4/His [1]): 21.9 pM | koff (CTLA4/His [1]): 8.16e-06 s⁻¹ | kon (CTLA4/His [1]): 372000 M⁻¹ s⁻¹ | EC50 (µg/ml), luciferase reporter, Promega anti-CTLA-4 blocking assay (CD80/CD86 aAPC/Raji cells with functional cells expressing CTLA-4) [2]: 3.96 µg/mL | Kd (CTLA4/His [3]): ≤ 23 pM | kon (CTLA4/His [3]): 434000 M⁻¹ s⁻¹ | koff (CTLA4/His [4]): ≤ 1e-05 s⁻¹

B2: AH01674 humanized anti-human CTLA4 monoclonal antibody (human IgG1/kappa) (antibody, V domains shown)
VH: QVQLVQSGAEVKKPGASVKVSCKASGYTFTSYWINWVRQAPGQGLEWMGRIAPGSGTTYYNEMFTGRVTMTRDTSTSTAYMELSSLRSEDTAVYYCARGDYFDYWGQGTMVTVSS
VL: DIQLTQSPSFLSASVGDRVTITCSASKSVSYIHWYQQKPGKAPKLLIYDTSTLASGVPPRFSGSGSGPEFTLTISSLQPEDFATYYCQQRTTYPLTFGQGTKLEIK
notes: also called AH1674
Kd (CTLA4/His [1]): 39.5 pM | koff (CTLA4/His [1]): 2.98e-05 s⁻¹ | kon (CTLA4/His [1]): 753000 M⁻¹ s⁻¹ | EC50 (µg/ml), luciferase reporter, Promega anti-CTLA-4 blocking assay (CD80/CD86 aAPC/Raji cells with functional cells expressing CTLA-4) [2]: 1.11 µg/mL | Kd (CTLA4/His [3]): ≤ 14.2 pM | koff (CTLA4/His [3]): ≤ 1e-05 s⁻¹ | kon (CTLA4/His [3]): 705000 M⁻¹ s⁻¹

B3: AH01672 humanized anti-human CTLA4 monoclonal antibody (human IgG1/kappa) (antibody, V domains shown)
VH: B2 VH with R38K, G106D
VL: B2 VL with T71S, Q99G
notes: also called AH1672
kon (CTLA4/His [5]): 690000 M⁻¹ s⁻¹ | EC50 (µg/ml), luciferase reporter, Promega anti-CTLA-4 blocking assay (CD80/CD86 aAPC/Raji cells with functional cells expressing CTLA-4) [2]: 7.31 µg/mL | Kd (CTLA4/His [3]): ≤ 14.5 pM | koff (CTLA4/His [3]): ≤ 1e-05 s⁻¹

B4: AH01679 humanized anti-human CTLA4 monoclonal antibody (human IgG1/kappa) (antibody, V domains shown)
VH: B2 VH with K12V, V20L, M48I, A79V
VL: B2 VL with P59S, P68T
notes: also called AH1679
EC50 (µg/ml), luciferase reporter, Promega anti-CTLA-4 blocking assay (CD80/CD86 aAPC/Raji cells with functional cells expressing CTLA-4) [2]: 17.1 µg/mL | Kd (CTLA4/His [3]): ≤ 13.4 pM | koff (CTLA4/His [3]): ≤ 1e-05 s⁻¹ | kon (CTLA4/His [3]): 748000 M⁻¹ s⁻¹

B5: AH01686 humanized anti-human CTLA4 monoclonal antibody (human IgG1/kappa) (antibody, V domains shown)
VH: B2 VH with K12V, V37I, R38K, M48I, M70L, M81I, Y95F
VL: B2 VL with P59S, P68T
Kd (CTLA4/His [3]): 38.8 pM | koff (CTLA4/His [3]): 3.18e-05 s⁻¹ | kon (CTLA4/His [3]): 820000 M⁻¹ s⁻¹

B6: AH01695 AAPH (AH01695 after the oxidation pressure test) (antibody, V domains shown)
VH: B2 VH with M70L, M81I, Y95F, R98I
VL: B2 VL with P59S, P68T
modifications: Met 63 oxidised in 70.898% of the sample; Met 250 (constant region of the heavy chain) oxidised in 26.143% (AAPH, 40 C, 24 h)
notes: Human IgG1/kappa, treated with AAPH; also called AH01695 AAPH-24 h
Kd (CTLA4/His [6]): 131 pM | koff (CTLA4/His [6]): 8.75e-05 s⁻¹ | kon (CTLA4/His [6]): 670000 M⁻¹ s⁻¹

B7: AH01695 humanized anti-human CTLA4 monoclonal antibody (human IgG1/kappa) (antibody, V domains shown)
VH: B2 VH with M70L, M81I, Y95F, R98I
VL: B2 VL with P59S, P68T
notes: also called AH1695
Kd (CTLA4/His [1]): 59.4 pM | koff (CTLA4/His [1]): 4.55e-05 s⁻¹ | kon (CTLA4/His [1]): 767000 M⁻¹ s⁻¹ | EC50 (µg/ml), luciferase reporter, Promega anti-CTLA-4 blocking assay (CD80/CD86 aAPC/Raji cells with functional cells expressing CTLA-4) [2]: 5.46 µg/mL | Kd (CTLA4/His [3]): ≤ 15.3 pM | koff (CTLA4/His [3]): ≤ 1e-05 s⁻¹ | kon (CTLA4/His [3]): 655000 M⁻¹ s⁻¹

B8: AH01704 humanized anti-human CTLA4 monoclonal antibody (human IgG1/kappa) (antibody, V domains shown)
VH: B2 VH with K12V, R38K, M70L, Y95F
VL: B2 VL with P59S, P68T, F70Y
Kd (CTLA4/His [3]): 14.4 pM | koff (CTLA4/His [3]): 1.12e-05 s⁻¹ | kon (CTLA4/His [3]): 780000 M⁻¹ s⁻¹

B9: AH01674 (prokaryotic expression antibody product, CBM library) (Fab, V domains shown)
VH: B2 VH
VL: B2 VL
notes: Prokaryotic expression product from Phage-Fab / FASEBA-Fab plasmids
Kd [7]: 15.4 pM

B10: AH01653 (prokaryotic expression antibody product, CBM library) (Fab, V domains shown)
VH: B2 VH with Q3H, R38K, G106D
VL: B2 VL with P59S, F70Y, Q99G
Kd [7]: 14.9 pM

B11: AH01672 (prokaryotic expression antibody product, CBM library) (Fab, V domains shown)
VH: B2 VH with R38K, G106D
VL: B2 VL with T71S, Q99G
notes: as for B9
Kd [7]: 14.5 pM

B12: AH01679 (prokaryotic expression antibody product, 5BM library) (Fab, V domains shown)
VH: B2 VH with K12V, V20L, M48I, A79V
VL: B2 VL with P59S, P68T
notes: as for B9
Kd [7]: 0.0431 pM | koff [8]: < 1e-05 s⁻¹

B13: AH01686 (prokaryotic expression antibody product, 5BM library) (Fab, V domains shown)
VH: B2 VH with K12V, V37I, R38K, M48I, M70L, M81I, Y95F
VL: B2 VL with P59S, P68T
notes: as for B9
Kd [7]: 0.0433 pM

B14: AH01695 (prokaryotic expression antibody product, 5BM library) (Fab, V domains shown)
VH: B2 VH with M70L, M81I, Y95F, R98I
VL: B2 VL with P59S, P68T
notes: as for B9
Kd [7]: 0.0106 pM

B15: AH01704 (prokaryotic expression antibody product, 5BM library) (Fab, V domains shown)
VH: B2 VH with K12V, R38K, M70L, Y95F
VL: B2 VL with P59S, P68T, F70Y
notes: as for B9
Kd [7]: 0.019 pM

B16: AH01696 (prokaryotic expression antibody product, 5BM library) (Fab, V domains shown)
VH: VQLVQSGAEVVKPGASVKVSCKASGYTFTSYWINWIRQAPGQGLEWIGRIAPGSGTTYYNEMFTGRVTLTRDTSTSTAYMELSSLRSEDTAVYYCARGDYFDYWDQGTMVTVSS
VL: B2 VL with Y35F, P59S, P68T, F70Y
notes: as for B9
Kd [7]: 0.00373 pM

B17: AH01696 humanized anti-human CTLA4 monoclonal antibody (human IgG1/kappa) (antibody, V domains shown)
VH: B16 VH
VL: B2 VL with Y35F, P59S, P68T, F70Y
Kd (CTLA4/His [3]): 42.9 pM | koff (CTLA4/His [3]): 2.77e-05 s⁻¹ | kon (CTLA4/His [3]): 646000 M⁻¹ s⁻¹

B18: Chimeric antibody AAPH (chimeric antibody after the oxidation pressure test) (antibody, V domains shown)
VH: B1 VH
VL: B1 VL
modifications: Met 63 oxidised in 62.144% of the sample (AAPH, 40 C, 24 h)
notes: Same protein as the chimeric antibody, treated with AAPH; also called Chimeric antibody AAPH-24 h
Kd (CTLA4/His [6]): 48.7 pM | koff (CTLA4/His [6]): 2.78e-05 s⁻¹ | kon (CTLA4/His [6]): 570000 M⁻¹ s⁻¹

B19: AH01674 AAPH (AH01674 after the oxidation pressure test) (antibody, V domains shown)
VH: B2 VH
VL: B2 VL
modifications: Met 63 oxidised in 75.616% of the sample (AAPH, 40 C, 24 h)
notes: Human IgG1/kappa, treated with AAPH; also called AH01674 AAPH-24 h
Kd (CTLA4/His [6]): 30.5 pM | koff (CTLA4/His [6]): 2.19e-05 s⁻¹ | kon (CTLA4/His [6]): 719000 M⁻¹ s⁻¹
